Measured values reported in article PMC12714728 (npj Viruses, 2025).
Starred links: 1 amine or outer side, 2 acyl side, 3 side chain; linkers in the order of their positions; H or OH if unused. Positions of bridges follow the written chain, without caps; N, C: chain ends. No end group written: not given here. Suc = O=C(CCC(=O)[*:2])[*:1]

Assays:
[1] = target: T1, hemagglutinin (HA) ectodomain of A/New Caledonia/20/1999 (H1N1) (influenza A virus A/New …, biotin on the BirA site); assay: AlphaScreen or HTRF; conditions: both partners purified
[2] = target: T1, hemagglutinin (HA) ectodomain of A/New …; assay: cell-based or functional assay

Binder	IC50 [1] [µM]	virus neutralization assay (VNA) EC50, H1/NCa virus [2] [µM]
CYEDPLGVAGGMC (not fully specified; cysteine pairing not given here) [cyclic peptide CP12]	4.95	58.3
CYRDPLGVAGGMC (disulfide 1-13, source: synthetic peptide (manual solid phase Fmoc chemistry, iodine oxidation, RP-HPLC)) [cyclic peptide CP11]	4.99	–
Suc-VSLYRDPLGVAGGMGVY-NH2 (source: synthetic peptide (manual solid phase Fmoc chemistry, RP-HPLC)) [linear peptide LP1]	22.9	–
LYEDPLGVAGGMG (head-to-tail lactam cyclized (no template), source: synthetic peptide (manual solid phase Fmoc chemistry, RP-HPLC)) [cyclic peptide CP14]	1.24	45.3
CYRDPLGVAGEMC (not fully specified; cysteine pairing not given here) [cyclic peptide CP13]	12.8	–
CLYRDPLGVAGGMGC (not fully specified (bridges); cysteine pairing not given here, source: synthetic peptide (manual solid phase Fmoc chemistry, iodine oxidation, RP-HPLC)) [cyclic peptide CP8]	0.16	0.28
